B1: 1C10 co-binder + huIgG1Fc_YTE_C→S (Fc fusion)
chain: EVQLVESGGGLVQAGGSLRLSCAASGGTFSSYTMGWFRQAPGKEREYVGGISSSGYVMYNSESMKGRFTISRENAKNMVYLQMNSLKPEDTAVYYCAAGTIGRPYDYWGQGTQVTVSSGGGSGGGGSGGGGSGGGGSGGGGSGGGGSGGGGSGMTGVKLEESGGGLVQPGGSLILSCAASGDISSIVAMGWYRQAPGKQRELVAAITSGGRTHYRDSVKGRFTISGNNDNSALYLHMNSLKPEDTAVYYCAADRGWTSVGEYDYWGKGTLVTVSSEPKSSDKTHTCPPCPAPELLGGPSVFLFPPKPKDTLYITREPEVTCVVVDVSHEDPEVKFNWYVDGVEVHNAKTKPREEQYNSTYRVVSVLTVLHQDWLNGKEYKCKVSNKALPAPIEKTISKAKGQPREPQVYTLPPSRDELTKNQVSLTCLVKGFYPSDIAVEWESNGQPENNYKTTPPVLDSDGSFFLYSKLTVDKSRWQQGNVFSCSVMHEALHNHYTQKSLSLSPGK
notes: VHH1-linker-VHH2-Fc; also called 1C10 WT; 1C10Fc
B2: 1D1 co-binder + huIgG1Fc_YTE_C→S (Fc fusion)
chain: EVQLVESGGGLVQAGGSLRLSCAASGGTFSSYAMAWFRQAPGKEREYVAGISSSGYTLYKSDSMKGRFTISRENAKNMVYLQMNSLKPEDTAVYSCAAGIFGRPYEYWGQGTLVTVSSGGGSGGGGSGGGGSGGGGSGGGGSPSMGVKLEESGGGLVQAGGSLILSCAASGDIPSIVAMGWYRQAPGKQRELVAAITSGGRTHYRDSVKGRFTISGNNDNSALYLHMNSLKPEDTAVYYCAADMGLTAVGEYDYWGQGTQVTVSSEPKSSDKTHTCPPCPAPELLGGPSVFLFPPKPKDTLYITREPEVTCVVVDVSHEDPEVKFNWYVDGVEVHNAKTKPREEQYNSTYRVVSVLTVLHQDWLNGKEYKCKVSNKALPAPIEKTISKAKGQPREPQVYTLPPSRDELTKNQVSLTCLVKGFYPSDIAVEWESNGQPENNYKTTPPVLDSDGSFFLYSKLTVDKSRWQQGNVFSCSVMHEALHNHYTQKSLSLSPGK
notes: VHH1-linker-VHH2-Fc; also called 1D1 WT; 1D1Fc
B3: 1H5 co-binder + huIgG1Fc_YTE_C→S (Fc fusion)
chain: EVQLVESGGGSVQAGGSLRLSCAASGGTFSSYAMAWFRQAPGKEREYVAGISSSGYTLYKSDSMKGRFTISRENAKNMVYLQMNSLKPEDTAVYSCAAGIFGRPYEYWGQGTQVTVSSGGGGSGGGGSGGGGSRSVGVQLVESGGGLVQAGGSLRLSCAASGSISSIHAMGWYRQAPGKQRELIAAITSGGRRHYRDSVKGRFTISGDNAKTNLYLQMNSLKPEDTAVYYCAADTGRVAVGEYDYWGQGTLVTVSSEPKSSDKTHTCPPCPAPELLGGPSVFLFPPKPKDTLYITREPEVTCVVVDVSHEDPEVKFNWYVDGVEVHNAKTKPREEQYNSTYRVVSVLTVLHQDWLNGKEYKCKVSNKALPAPIEKTISKAKGQPREPQVYTLPPSRDELTKNQVSLTCLVKGFYPSDIAVEWESNGQPENNYKTTPPVLDSDGSFFLYSKLTVDKSRWQQGNVFSCSVMHEALHNHYTQKSLSLSPGK
notes: VHH1-linker-VHH2-Fc
B4: 21H7 co-binder + huIgG1Fc_YTE_C→S (Fc fusion)
chain: EVQLVESGGGLVQAGGSLRLSCAASGGTFSSYTMGWFRQAPGKEREYVGGISSSGYVMYNSESMKGRFTISRENAKNMVYLQMNSLKPEDTAVYYCAAGTIGRPYDYWGQGTQVTVSSGGGSGGGGSGGGGSGGGGSGGGGSGGGGSGGGGSEGVGLVESGGGSVQAGDSLRLSCAASGRTFSTYIIGWFRQAPGKEREFVASISWGGRGTYYADSVKDRFTISRDNPKNMVYLQMNSLKPEDTAVYYCAAGDLPGGRRALDYDYWGQGTLVTVSSEPKSSDKTHTCPPCPAPELLGGPSVFLFPPKPKDTLYITREPEVTCVVVDVSHEDPEVKFNWYVDGVEVHNAKTKPREEQYNSTYRVVSVLTVLHQDWLNGKEYKCKVSNKALPAPIEKTISKAKGQPREPQVYTLPPSRDELTKNQVSLTCLVKGFYPSDIAVEWESNGQPENNYKTTPPVLDSDGSFFLYSKLTVDKSRWQQGNVFSCSVMHEALHNHYTQKSLSLSPGK
notes: VHH1-linker-VHH2-Fc; also called 21H7 WT; 21H7Fc

Molecular target: T1, human IL31 (human, UniProt Q6EBC2 24-164, biotinylated in the SPR assay (site not stated))
T1 sequence: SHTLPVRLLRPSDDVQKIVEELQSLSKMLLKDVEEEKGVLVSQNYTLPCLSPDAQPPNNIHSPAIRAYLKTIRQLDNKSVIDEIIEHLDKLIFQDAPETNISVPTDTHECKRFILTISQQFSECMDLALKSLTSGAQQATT
Experiment: cell-based or functional assay

Row | Binder | Activity (IC50, nM), pSTAT3 assay (P^3)
1 | B1 | 8.5 nM
2 | B2 | 6.7 nM
3 | B3 | 6.1 nM
4 | B4 | 8.4 nM

Molecular target: T1, human IL31
Experiment: SPR (Biacore T200, Biotin CAPture): biotinylated IL31 captured, co-binder Fc fusion as analyte
Procedure: (§1) Binding affinity was measured using Biotin CAPture Kit (Cytiva Life Sciences) and the BIACORE™ T200 SPR system (Cytiva Life Sciences). Initially, Biotin CAPture Reagent (Cytiva Life Sciences) was flowed to immobilize 3 nM biotinylated IL31 (ligand). 3 nM, 9 nM, and 27 nM anti-IL31 co-binders were flowed as analyte with 180 seconds association and running buffer was flowed with 3000 seconds dissociation. The sensor chip was regenerated by guanidine hydrochloride and sodium hydroxide.

Row | Binder | Kd
5 | B1 | 0.0587 nM
6 | B2 | 0.024 nM
7 | B3 | 0.0032 nM
8 | B4 | 0.0148 nM

Molecular target: T1, human IL31
Experiment: cell-based or functional assay
Remark: another data set of the same source

Row | Binder | Activity (IC50, nM); pSTAT3 assay per Table 4
9 | B1 | 8.5 nM
10 | B2 | 6.7 nM
11 | B3 | 6.1 nM
12 | B4 | 8.4 nM

Molecular target: T1, human IL31
Experiment: cell-based or functional assay
Remark: another data set of the same source

Row | Binder | EC50 (pSTAT3) nM
13 | B1 | 6.57 nM
14 | B2 | 8.42 nM
15 | B4 | 6.65 nM

Molecular target: T1, human IL31
Experiment: KD of wild-type and humanized co-binders; method not restated (SPR as in Example 4 presumed)

Row | Binder | Kd
16 | B1 | 0.0126 nM
17 | B2 | 0.0153 nM
18 | B4 | 0.0104 nM

Molecular target: T1, human IL31
Experiment: binding kinetics after 3x freeze/thaw; method and target not restated (SPR on IL31 presumed)

Row | Binder | Kd | koff | kon
19 | B1 | 3.45 nM | 0.000675 s⁻¹ | 196000 M⁻¹ s⁻¹
20 | B2 | 3.22 nM | 0.000628 s⁻¹ | 195000 M⁻¹ s⁻¹
21 | B3 | 0.619 nM | 0.000551 s⁻¹ | 890000 M⁻¹ s⁻¹
22 | B4 | 19.4 nM | 0.00435 s⁻¹ | 224000 M⁻¹ s⁻¹

Molecular target: T1, human IL31
Experiment: SPR (Biacore T200, Biotin CAPture): biotinylated IL31 captured, co-binder Fc fusion as analyte
Remark: another data set of the same source
Procedure: as §1

Row | Binder | Kd
23 | B1 | 0.0587 nM
24 | B2 | 0.024 nM
25 | B3 | 0.0032 nM
26 | B4 | 0.0148 nM

Molecular target: T1, human IL31
Experiment: binding kinetics, large-scale material, baseline sample; method and target not restated (SPR on IL31 presumed)

Row | Binder | Kd | koff | kon
27 | B1 | 1.5 nM | 0.00033 s⁻¹ | 220000 M⁻¹ s⁻¹
28 | B2 | 1.94 nM | 0.000405 s⁻¹ | 209000 M⁻¹ s⁻¹
29 | B3 | 0.136 nM | 0.000138 s⁻¹ | 1.01e+06 M⁻¹ s⁻¹
30 | B4 | 18.6 nM | 0.00423 s⁻¹ | 228000 M⁻¹ s⁻¹

From patent US20260139046A1 (ATTOVIA THERAPEUTICS, published 2026)
